{
  "source": "paper PMC11736007",
  "binders": {"B1": {"name": "mCherry-SPCA2 (natural protein)", "chain": "MVEGRVSEFLKKLGFSGGGRQYQALEKDEEEALIDEQSELKAIEKEKKVTALPPKEACKCQKEDLARAFCVDLHTGLSEFSVTQRRLAHGWNEFVADNSEPVWKKYLDQFKNPLILLLLGSALVSVLTKEYEDAVSIATAVLVVVTVAFIQEYRSEKSLEELTKLVPPECNCLREGKLQHLLARELVPGDVVSLSIGDRIPADIRLTEVTDLLVDESSFTGEAEPCSKTDSPLTGGGDLTTLSNIVFMGTLVQYGRGQGVVIGTGESSQFGEVFKMMQAEETPKTPLQKSMDRLGKQLTLFSFGIIGLIMLIGWSQGKQLLSMFTIGVSLAVAAIPEGLPIVVMVTLVLGVLRMAKKRVIVKKLPIVETLGCCSVLCSDKTGTLTANEMTVTQLVTSDGLRAEVSGVGYDGQGTVCLLPSKEVIKEFSNVSVGKLVEAGCVANNAVIRKNAVMGQPTEGALMALAMKMDLSDIKNSYIRKKEIPFSSEQKWMAVKCSLKTEDQEDIYFMKGALEEVIRYCTMYNNGGIPLPLTPQQRSFCLQEEKRMGSLGLRVLALASGPELGRLTFLGLVGIIDPPRVGVKEAVQVLSESGVSVKMITGDALETALAIGRNIGLCNGKLQAMSGEEVDSVEKGELADRVGKVSVFFRTSPKHKLKIIKALQESGAIVAMTGDGVNDAVALKSADIGIAMGQTGTDVSKEAANMILVDDDFSAIMNAVEEGKGIFYNIKNFVRFQLSTSISALSLITLSTVFNLPSPLNAMQILWINIIMDGPPAQSLGVEPVDKDAFRQPPRSVRDTILSRALILKILMSAAIIISGTLFIFWKEMPEDRASTPRTTTMTFTCFVFFDLFNALTCRSQTKLIFEIGFLRNHMFLYSVLGSILGQLAVIYIPPLQRVFQTENLGALDLLFLTGLASSVFILSELLKLCEKYCCSPKRVQMHPEDV"}},
  "target": "Orai1β-eGFP (UniProt Q96D31)",
  "sequence (Q96D31 64-301)": "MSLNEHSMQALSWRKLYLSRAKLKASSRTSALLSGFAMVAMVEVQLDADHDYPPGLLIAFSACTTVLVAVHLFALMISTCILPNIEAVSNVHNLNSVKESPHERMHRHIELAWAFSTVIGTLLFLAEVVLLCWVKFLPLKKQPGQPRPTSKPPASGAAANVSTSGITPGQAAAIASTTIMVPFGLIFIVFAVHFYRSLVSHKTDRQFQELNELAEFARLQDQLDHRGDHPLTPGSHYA",
  "experiment": "co-IP; Orai1-KO MCF7 cells co-transfected with an Orai1 variant and mCherry-SPCA2; lysis in 1% IGEPAL CA-630 buffer pH 8; immunoprecipitation with anti-Orai1 antibody and protein A-agarose at 4 °C overnight; Western blot with anti-mCherry; signal normalised to input and to immunoprecipitated Orai1",
  "data": [
    {"binder": "B1", "values": [
      {"measurement": "percent decrease of co-precipitated SPCA2 against Orai1α", "result": 63, "unit": "%"}
    ]}
  ]
}
